# Test results reported in US20220040319A1 (Regeneron, published 2022).
# B1: H4H13313P2 (antibody, human IgG4, V domains shown)
# VH: QVQLVESGGGVVQPGRSLRLSCSASGFSFSHFGMHWVRQVPGGGLEWVTSIWFDGSNRYYADSLKGRFTISRDNSKNTLYLEMNSLRAEDTAVYYCVREGILGTTNPYDVFDVWGQGTMVTVSS
# VL: not shown
# B2: H4H13325P2 (antibody, human IgG4, V domains shown)
# VH: EVQLLESGGGWVQPGGSLRLSCAASGFAFSNYAMNWVRQTPGKGLEWVSVISSSGGNTYYADSVKGRFAISRDNSRDTLHLQMNRLRVEDTAVYYCAKEIRPYYDLSYYYGMDVWGQGTTVTVSS
# VL: not shown
# B3: H4H13291P2 (antibody, human IgG4, V domains shown)
# VH: QVQLVESGGGVVQPGGSLRLSCAASGFTFSGYGMHWVRQAPGKGLEWMAVIWYDGSNDYYPDSVKGRFTISRDNSKNTLYLQMNSLRVEDTAVYYCARDAWDLLRSFDYWGQGTLVTVSS
# VL: not shown
# B4: H4H13302P2 (antibody, human IgG4, V domains shown)
# VH: QVQLVESGGGVVQPGRSLRLSCAASGFTFSNFGMHWVRQAPGKGLEWVAGIWFDGSNKNYIDSVKGRFTISRDNSKNTLYLQMNSLRAEDTAVYYCAREGYDSGTDYIPYDIFDIWGQGTMVTVSS
# VL: not shown
# B5: H4H13319P2 (antibody, human IgG4, V domains shown)
# VH: QVQLVESGGGVVQPGRSLRLSCAASGFTFSSFAMHWVRQAPGKGLEWVAVIWYDGSNDYYAASVKGRFTISRDNSKNTLYLEMNRLRAEDTAVYHCARDNWNYWGGMDVWGQGTTVTVSS
# VL: not shown
# B6: H4H13316P2 (antibody, human IgG4, V domains shown)
# VH: EVQLVESGGGLVQPGGSLRLSCAASGFTFRSYVMSWFRQAPGKGLEWVSGMSGSGGSTSYADSVKGRFTISRDNSKNTLYLLMNSLRTEDTAVYYCAKENGANWNYGYYGMDVWGQGTTVTVSS
# VL: not shown
# B7: H1H13316P2 (antibody, IgG1, V domains shown)
# VH: B6 VH
# VL: not shown
# B8: H4H13306P2 (antibody, human IgG4, V domains shown)
# VH: EVQLVESGGGLVQPGTSLRLSCAASGFTFDDYAMHWVRQAPGKGLEWVSGITWNSYNIDYADSVKGRFTISRDNAKNSLYLQMNSLRAEDTALYYCAKDDDYSNYVYFDYWGQGTLVTVSS
# VL: not shown
# B9: H4H13301P2 (antibody, human IgG4, V domains shown)
# VH: QVQLVESGGGVVQPGTSLRLSCVASGFTFRNFGMHWVRQAPGKGLEWVANIWFDGSNENYVESIQGRFTISRDNSKNTLNLQMNSLRAEDSAVYYCVREGILGTTNPYDAFDVWGQGTMVTVSS
# VL: not shown
# B10: H1H13301P2 (antibody, IgG1, V domains shown)
# VH: B9 VH
# VL: not shown
# B11: H4H13295P2 (antibody, human IgG4, V domains shown)
# VH: QVQLVESGGGVVQPGRSLRVSCVVSGFTFSSFGMHWVRQAPDKGLEWVAVIWYDGSNDYYSDSVKGRFTISRDNSKNTLFLQMNRLRAEDTAVYYCARANNWNRFDAFDLWGQGTMVTVSS
# VL: not shown
# B12: H4H14635D-Maytansinoid A (bispecific antibody, V domains shown)
# VH 1: B11 VH
# VH 2: EVQLVESGGGLVQPGGSLRLSCAASGFIVTTNYMTWLRQAPGKGLEWVSLIYSSGHTYYADSVKGRFTISRHNSKNTLYLQMDSLRAEDTAVYYCASAFAADVFDIWGQGTMVTVSS
# VL: not shown
# modifications: SMCC-DM1 (Maytansinoid A) linker-payload conjugated to the antibody; residues not stated
# B13: H4H14635D-Maytansinoid B (bispecific antibody, V domains shown)
# VH 1: B11 VH
# VH 2: B12 VH 2
# VL: not shown
# modifications: Maytansinoid B (Compound 1, FIG. 20) linker-payload conjugated to the antibody; residues not stated
# B14: H4H13312P2-Maytansinoid A (antibody, IgG4, V domains shown)
# VH: B12 VH 2
# VL: not shown
# modifications: SMCC-DM1 (Maytansinoid A) linker-payload conjugated to the antibody; residues not stated
# B15: H4H13312P2-Maytansinoid B (antibody, IgG4, V domains shown)
# VH: B12 VH 2
# VL: not shown
# modifications: Maytansinoid B (Compound 1, FIG. 20) linker-payload conjugated to the antibody; residues not stated
# B16: H4H13299P2 (antibody, human IgG4, V domains shown)
# VH: EVQLVESGGGLVQPGGSLRLSCAASGFIFSNYEMNWVRQAPGKGLEWISYITSSGNMKYYADSVKGRFTISRDNDKNSLYLQMSSLRVEDTAVYYCVRGGRFLEWLTYYVMVVWGQGTTVTVSS
# VL: not shown
# notes: human IgG4 Fc (H4H), bivalent monospecific
# B17: H4H13302P2 (antibody, human IgG4, V domains shown)
# VH: B4 VH
# VL: not shown
# notes: as for B16
# B18: H4H13300P2 (antibody, human IgG4, V domains shown)
# VH: QVQLVESGGGVVQPGRSLRLSCAVSGFTFSSYGMHWVRQAPGKGLEWVANIWYDGTNDYYPYSVKGRFTISRDNSQNTLYLQMNSLRAEDTAVYYCAREDFINYRSFDYWGQGTLVTVSS
# VL: not shown
# notes: as for B16
# B19: H4H13301P2 (antibody, human IgG4, V domains shown)
# VH: B9 VH
# VL: not shown
# notes: as for B16
# B20: H4H13295P2 (antibody, human IgG4, V domains shown)
# VH: B11 VH
# VL: not shown
# notes: as for B16
# Biological target: T1, human MET on cells (human, UniProt P08581 25-1390)
# Test: cell-based or functional assay
# Throughout, for % Inhibition, HEK293/SRE-Luc Blocking Activity (HGF, 1 h mAb pre-bind): test concentration or dose not given here.
# T1 sequence (P08581 25-1390 limits assumed, form in doubt): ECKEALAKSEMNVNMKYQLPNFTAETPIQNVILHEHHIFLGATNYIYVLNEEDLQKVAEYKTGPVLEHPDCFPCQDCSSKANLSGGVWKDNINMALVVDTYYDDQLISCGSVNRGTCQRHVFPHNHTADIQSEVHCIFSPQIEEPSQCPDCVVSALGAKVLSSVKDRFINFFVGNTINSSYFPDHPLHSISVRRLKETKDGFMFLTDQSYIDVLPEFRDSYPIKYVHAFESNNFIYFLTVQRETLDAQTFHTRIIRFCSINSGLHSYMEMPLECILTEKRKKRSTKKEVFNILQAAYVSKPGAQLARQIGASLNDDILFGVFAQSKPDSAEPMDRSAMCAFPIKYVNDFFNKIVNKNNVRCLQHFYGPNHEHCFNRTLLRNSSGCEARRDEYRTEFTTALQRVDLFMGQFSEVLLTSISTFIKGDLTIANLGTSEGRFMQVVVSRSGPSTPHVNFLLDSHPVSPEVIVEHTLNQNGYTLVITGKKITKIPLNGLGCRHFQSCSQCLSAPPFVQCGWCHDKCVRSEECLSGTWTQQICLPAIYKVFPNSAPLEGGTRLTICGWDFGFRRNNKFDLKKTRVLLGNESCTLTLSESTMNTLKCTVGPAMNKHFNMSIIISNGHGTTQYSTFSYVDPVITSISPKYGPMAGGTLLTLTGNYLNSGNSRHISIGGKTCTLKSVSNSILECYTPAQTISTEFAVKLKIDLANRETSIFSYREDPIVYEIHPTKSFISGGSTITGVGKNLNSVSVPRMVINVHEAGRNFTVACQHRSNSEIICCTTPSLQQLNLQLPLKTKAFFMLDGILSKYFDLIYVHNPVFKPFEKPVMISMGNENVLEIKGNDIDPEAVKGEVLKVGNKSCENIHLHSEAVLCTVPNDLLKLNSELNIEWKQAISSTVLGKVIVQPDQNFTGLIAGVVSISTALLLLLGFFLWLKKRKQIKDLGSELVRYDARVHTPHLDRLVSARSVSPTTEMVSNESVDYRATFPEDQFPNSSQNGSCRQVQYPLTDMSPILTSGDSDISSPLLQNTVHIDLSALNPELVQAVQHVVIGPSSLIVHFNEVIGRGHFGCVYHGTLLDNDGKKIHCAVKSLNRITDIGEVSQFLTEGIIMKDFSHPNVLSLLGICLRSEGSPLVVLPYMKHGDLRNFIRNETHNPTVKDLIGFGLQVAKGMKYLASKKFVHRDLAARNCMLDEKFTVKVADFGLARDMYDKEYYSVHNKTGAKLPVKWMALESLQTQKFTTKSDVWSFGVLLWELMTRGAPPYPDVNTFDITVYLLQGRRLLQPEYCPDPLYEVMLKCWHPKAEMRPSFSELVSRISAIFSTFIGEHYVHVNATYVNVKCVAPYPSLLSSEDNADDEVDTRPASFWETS
Binder,"% Inhibition, HEK293/SRE-Luc Blocking Activity (HGF, 1 h mAb pre-bind) [%]","Fold Response, Ligand (HGF)-Independent HEK293/SRE-Luc Activation [fold]","IC50, HEK293/SRE-Luc Blocking Activity (HGF, 1 h mAb pre-bind) [nM]","EC50, Ligand (HGF)-Independent HEK293/SRE-Luc Activation [nM]"
B1,47,1.2,2.3,–
B2,69,4.3,0.013,0.19
B3,61,2.7,0.13,0.39
B4,45,1.8,1.6,–
B5,67,4.8,0.052,0.18
B6,74,2.3,0.0078,0.047
B7,86,1.7,0.04,–
B8,–,–,–,0.013
B9,40,1.6,1.5,–
B10,42,1.4,3.3,–
B11,70,2.8,0.055,0.3

# Biological target: T1, human MET on cells
# Test: cell-based or functional assay
# Remark: another data set of the same source
Binder,"% Growth Inhibition, SNU5 cells [%]","IC50, SNU5 growth [nM]"
B1,34,0.044
B2,57,0.044
B3,24,–
B4,40,0.11
B5,23,0.1
B6,53,0.1
B7,30,0.2
B8,28,0.071
B9,33,0.074
B10,33,0.1
B11,30,–

# Biological target: T1, human MET on cells
# Test: cell-based or functional assay
# Remark: another data set of the same source
Binder,"IC50, 6-day in vitro cytotoxicity, A549 [nM]","IC50, 6-day in vitro cytotoxicity, EBC-1 [nM]","IC50, 6-day in vitro cytotoxicity, Hs746t [nM]","Max % Kill, 6-day in vitro cytotoxicity, A549 [%]","Max % Kill, 6-day in vitro cytotoxicity, EBC-1 [%]","Max % Kill, 6-day in vitro cytotoxicity, Hs746t [%]"
B12,6.78,0.76,1.76,91,96,86
B13,21.4,0.26,2.32,72,96,89
B14,18.3,0.39,1.59,89,95,87
B15,27.1,0.07,0.89,85,95,90

# Biological target: T2, hMet.mmh (human MET extracellular domain with C-terminal myc-myc-hexahistidine tag) (human, UniProt P08581 309-914; P08581 27-307)
# T2 construct: soluble monomeric MET; also called monomeric human MET
# Test: SPR 37C, antibody captured
# Experimental: (§1) The anti-Met antibodies tested in this example were bivalent monospecific binders of MET.
# (§2) Kinetic association (kₐ) and dissociation (kd) rate constants were determined by fitting the real-time sensorgrams to a 1:1 binding model using Scrubber 2.0c curve fitting software. Binding dissociation equilibrium constant (KD) and dissociative half-life (t1/2) were calculated from the kinetic rate constants as: […]
# T2 sequence (P08581 other isoform, or with tags, fused parts or gaps limits assumed, chain 1 of 2): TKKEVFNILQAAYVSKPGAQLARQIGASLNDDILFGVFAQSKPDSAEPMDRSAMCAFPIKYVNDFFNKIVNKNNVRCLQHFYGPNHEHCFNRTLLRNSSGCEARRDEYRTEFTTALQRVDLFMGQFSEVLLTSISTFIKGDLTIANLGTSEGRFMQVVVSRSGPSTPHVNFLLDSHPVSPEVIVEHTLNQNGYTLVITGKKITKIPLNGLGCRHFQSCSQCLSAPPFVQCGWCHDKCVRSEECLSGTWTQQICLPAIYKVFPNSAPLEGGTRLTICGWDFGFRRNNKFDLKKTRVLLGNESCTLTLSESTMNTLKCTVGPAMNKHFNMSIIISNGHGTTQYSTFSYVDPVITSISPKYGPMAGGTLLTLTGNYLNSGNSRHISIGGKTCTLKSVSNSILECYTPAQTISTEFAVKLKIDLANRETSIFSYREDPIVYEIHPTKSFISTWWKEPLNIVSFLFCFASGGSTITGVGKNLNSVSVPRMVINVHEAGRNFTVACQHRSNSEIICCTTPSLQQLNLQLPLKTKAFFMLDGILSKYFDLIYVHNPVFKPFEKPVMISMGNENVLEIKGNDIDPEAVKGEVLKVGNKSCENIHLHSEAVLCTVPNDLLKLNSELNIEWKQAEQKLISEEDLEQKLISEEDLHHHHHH
# T2 sequence (P08581 27-307 limits assumed, chain 2 of 2): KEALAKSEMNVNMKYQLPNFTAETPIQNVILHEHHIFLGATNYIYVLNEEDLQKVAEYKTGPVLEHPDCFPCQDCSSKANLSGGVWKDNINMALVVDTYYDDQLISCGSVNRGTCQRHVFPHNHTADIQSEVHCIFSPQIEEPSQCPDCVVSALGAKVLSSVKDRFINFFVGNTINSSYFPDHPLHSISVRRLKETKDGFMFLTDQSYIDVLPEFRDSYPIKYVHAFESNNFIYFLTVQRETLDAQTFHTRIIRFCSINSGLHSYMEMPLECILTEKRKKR
Binder,Kd [nM],T½ [min],koff [s⁻¹],kon [M⁻¹ s⁻¹]
B16,8.57,14.8,0.00078,91000
B17,47,4.7,0.00246,52400
B18,72.5,4.8,0.00243,33500
B19,82.2,1.9,0.00622,75700
B20,32.4,21.4,0.00054,16700

# Biological target: T3, hMET.mFc (dimeric human MET) (human, UniProt P08581 27-307)
# T3 construct: soluble dimeric MET protein
# Test: SPR 37C, antibody captured
# Experimental: as §1, §2
# T3 sequence (P08581 other isoform, or with tags, fused parts or gaps limits assumed, chain 1 of 2): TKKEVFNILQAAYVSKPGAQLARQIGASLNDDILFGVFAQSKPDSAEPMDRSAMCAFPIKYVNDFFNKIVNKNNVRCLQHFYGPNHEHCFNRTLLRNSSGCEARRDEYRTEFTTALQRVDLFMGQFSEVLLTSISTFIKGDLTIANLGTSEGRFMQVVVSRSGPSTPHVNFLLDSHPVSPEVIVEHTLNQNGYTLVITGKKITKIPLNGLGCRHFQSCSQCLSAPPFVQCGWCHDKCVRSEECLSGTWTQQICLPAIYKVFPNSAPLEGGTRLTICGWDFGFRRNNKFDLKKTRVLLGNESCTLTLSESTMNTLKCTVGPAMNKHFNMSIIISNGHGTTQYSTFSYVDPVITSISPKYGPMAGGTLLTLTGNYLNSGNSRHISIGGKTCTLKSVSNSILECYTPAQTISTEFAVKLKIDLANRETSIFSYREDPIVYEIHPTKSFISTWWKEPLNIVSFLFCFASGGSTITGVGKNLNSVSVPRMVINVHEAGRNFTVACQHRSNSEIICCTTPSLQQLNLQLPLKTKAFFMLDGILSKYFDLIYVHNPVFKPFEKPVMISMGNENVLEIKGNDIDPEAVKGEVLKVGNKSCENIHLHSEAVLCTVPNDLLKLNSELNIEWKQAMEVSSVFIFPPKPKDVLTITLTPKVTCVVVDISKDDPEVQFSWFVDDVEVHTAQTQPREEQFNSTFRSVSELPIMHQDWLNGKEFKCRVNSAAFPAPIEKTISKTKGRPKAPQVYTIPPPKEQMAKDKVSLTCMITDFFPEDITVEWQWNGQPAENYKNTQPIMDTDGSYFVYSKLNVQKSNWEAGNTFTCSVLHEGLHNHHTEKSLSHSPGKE
# T3 sequence (P08581 27-307 limits assumed, chain 2 of 2): as the sequence (P08581 27-307 limits assumed, chain 2 of 2) above
Binder,Kd [nM],T½ [min],koff [s⁻¹],kon [M⁻¹ s⁻¹]
B16,0.878,36.8,0.000314,357000
B17,2.33,19.8,0.000584,251000
B18,1.12,39.1,0.000295,265000
B19,1.62,10.1,0.00114,705000
B20,1.16,43.8,0.000264,228000
